Results reported in article PMC5470874.

System: Matrin 3 (endogenous, HCT116 nuclear extract) (Homo sapiens (HCT116))
Assay: pull-down + mass spectrometry
Details: rMatrin 3 pulldown: 25 mM Tris-HCl pH 7.5, 150 mM KCl, 0.1% Triton X-100, 100 ug/ml BSA, 2 mM DTT, 5% glycerol, room temperature, 2 hr

Substance: Bi-PINCR (full-length PINCR transcript)
- binding signal (fold over Bi-LUC) (DOXO-treated nuclear extract): 16
- binding signal (fold over Bi-LUC) (untreated nuclear extract): 8
